Test results published in patent publication US20220153854A1 (Ablynx, published 2022).

Columns and labels:
human IL-13 = target: T1, human IL-13 (human, UniProt P35225 35-146, limits assumed); experiment: flow cytometry on CHO-KI cells expressing human OX40L loaded with 100 nM F027100187, dilution series of soluble human IL-13 in the presence of 30 uM HSA (bridging / simultaneous binding; x axis printed as 'Concentration human IL-13-Fc (M)', text says biotinylated IL-13)
T1 construct: Recombinant soluble protein; also called hIL-13; soluble hIL-13
Procedure: Using flow cytometry, it was determined whether ISVD construct F0271000187 can bind simultaneously to recombinant soluble hIL-13 and cell membrane bound hOX40L. […] Subsequently the mixture was incubated with a dilution series of biotinylated IL-13 starting from 500 nM down to […], and incubated for 30 min at 4° C., in the presence of 30 μM HSA. Cells were washed 3 times and subsequently incubated with PE-labelled […] for 30 min at 4° C., washed again. Samples were washed and resuspended in FACS Buffer (D-PBS with 10% FBS and 0.05% sodium azide supplemented with 5 nM TOPRO3). Cell suspensions were then analyzed on a iQuescreener.

[1] = target: T2, membrane bound human OX40L on CHO-KI cells (human, UniProt P23510 1-183); experiment: cell-based or functional assay
T2 sequence (looked up): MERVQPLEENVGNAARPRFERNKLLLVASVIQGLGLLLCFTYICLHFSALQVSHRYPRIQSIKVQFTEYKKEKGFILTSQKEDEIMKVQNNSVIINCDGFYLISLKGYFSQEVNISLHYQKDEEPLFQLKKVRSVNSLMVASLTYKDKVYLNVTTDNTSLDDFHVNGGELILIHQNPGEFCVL

[2] = target: T3, membrane bound cyno OX40L on CHO-KI cells (cynomolgus monkey, UniProt G7NVH7 1-183); experiment: cell-based or functional assay
T3 sequence: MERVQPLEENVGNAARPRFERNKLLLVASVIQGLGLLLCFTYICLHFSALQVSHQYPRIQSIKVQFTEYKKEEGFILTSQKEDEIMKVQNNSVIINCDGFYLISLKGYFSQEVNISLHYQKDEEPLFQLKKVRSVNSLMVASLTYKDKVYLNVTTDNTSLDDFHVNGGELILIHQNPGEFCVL

cyno OX40L = target: T4, cyno OX40L (cynomolgus monkey, UniProt G7NVH7 51-183); experiment: Gyrolab in-solution affinity, 24 h incubation; 95% CI 174-218 pM
T4 construct: also called cyOX40L; cynomolgus monkey OX40L
T4 sequence: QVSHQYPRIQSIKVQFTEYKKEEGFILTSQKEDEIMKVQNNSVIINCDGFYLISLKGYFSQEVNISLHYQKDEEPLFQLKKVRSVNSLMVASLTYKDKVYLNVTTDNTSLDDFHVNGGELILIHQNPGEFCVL
Procedure: (§1) Under receptor-controlled measurements a serial dilution of OX40L (ranging from 1.3 μM-0.031 μM), IL-13 (ranging from 0.1 μM-0.25 fM), or serum albumin (ranging from 100 μM-3.2 μM) and a fixed amount of ISVD construct F027100187 (5 nM in case of OX40L, […] in case of IL-13 and 30 nM in case of HSA and cyno SA) were mixed to allow interaction and incubated for either 24 or 48 hours (in case of OX40L and IL-13) or 2 hours (in case of serum albumin) to reach equilibrium.
(§2) Biotinylated human OX40L/IL-13/serum albumin was captured in the microstructures of a Gyrolab Bioaffy 1000 CD, which contains columns of beads and was used as a molecular probe to capture free F027100187 from the equilibrated solution. The mixture of OX40L/IL13/serum albumin and F027100187 (containing free OX40UIL-13/serum albumin, free F027100187 and OX40L/IL13/serum albumin—F027100187 complexes) was allowed to flow through the beads, and a small percentage of free F027100187 was captured, which is proportional to the free ISVD construct concentration. A fluorescently labeled anti-ISVD antibody, ABH0086-Alexa647, was then injected to label any captured F027100187 and after rinsing away excess of fluorescent probe, the change in fluorescence was determined. Fitting of the dilution series was done using Gyrolab Analysis software, where KD- and receptor-controlled curves were analyzed to determine the KD value.

rhesus IL-13 = target: T5, rhesus IL-13 (rhesus monkey, UniProt Q864V6 19-132, limits assumed); experiment: Gyrolab in-solution affinity, 48 h incubation; 95% CI 9.0-49.5 pM
T5 construct: also called rhesus monkey IL-13
Procedure: as §1, §2

[3] = target: T2, membrane bound human OX40L on CHO-KI …; experiment: flow cytometry on fixed CHO-KI cells expressing human OX40L, 48 h incubation
Procedure: Briefly, cells were fixed with 4% paraformaldehyde and 0.1% Glutaraldehyde in PBS, seeded at a density of 1×10⁴ cells/well and incubated with a dilution series of ISVD F027100187 or reference compound anti-hOX40L mAb, named Comparator 3, starting from 100 nM […] 0.5 μM, for 48 hours at room temperature. Comparator 3 is a standard conventional monoclonal antibody directed against human OX40L, which is used as a reference throughout the Examples 1 to 12 described herein. Cells were washed 3 times and subsequently incubated with an anti-VHH mAb (ABH00119) for 30 min at 4° C., washed again, and incubated for 30 min at 4° C. with a goat anti-mouse PE or FITC labeled antibody. Samples were washed and resuspended in FACS Buffer (D-PBS with 10% FBS and 0.05% sodium azide supplemented with 5 nM TOPRO3). Cell suspensions were then analyzed on an iQuescreener. EC50 values were calculated using GraphPad Prism.

T1 sequence (P35225 35-146 limits assumed): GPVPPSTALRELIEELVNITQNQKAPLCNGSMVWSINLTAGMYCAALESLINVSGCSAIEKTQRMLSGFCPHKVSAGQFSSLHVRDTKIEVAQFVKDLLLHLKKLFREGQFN
T5 sequence (Q864V6 19-132 limits assumed): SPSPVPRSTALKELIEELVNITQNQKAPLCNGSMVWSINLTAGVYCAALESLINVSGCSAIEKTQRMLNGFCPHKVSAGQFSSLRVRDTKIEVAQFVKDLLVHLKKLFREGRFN

EC50 (read off the curve) (human IL-13): ~20 nM
PBMC activity assay IC50 [1]: 1.9 nM
PBMC activity assay IC50 [2]: 14 nM
Kd (cyno OX40L): 0.196 nM
Kd (rhesus IL-13): 0.0293 nM
EC50 [3]: 0.0235 nM
B1: ISVD construct F027100187 (other)
chain: DVQLVESGGGVVQPGGSLRLSCAASRSIGRYDRMGWYRHRPGEPRELVATITGGSSINYGDSVKGRFTISIDNSKNTVYLQMNSLRPEDTALYYCNFNKYQISRDTWGQGTLVTVSSGGGGSGGGSEVQLVESGGGVVQPGGSLRLSCAASGRTFSSYRMGWFRQAPGKEREFVAALSGDGYSTYTANSVKGRFTISRDNSKNTVYLQMNSLRPEDTALYYCAAKLQYVSGWSYDYPYWGQGTLVTVSSGGGGSGGGSEVQLVESGGGVVQPGGSLRLSCAASGFTFRSFGMSWVRQAPGKGPEWVSSISGSGSDTLYADSVKGRFTISRDNSKNTLYLQMNSLRPEDTALYYCTIGGSLSRSSQGTLVTVSSGGGGSGGGSEVQLVESGGGVVQPGGSLRLSCAASGFTFNNYAMKWVRQAPGKGLEWVSSITTGGGSTDYADSVKGRFTISRDNSKNTLYLQMNSLRPEDTALYYCANVPFGYYSEHFSGLSFDYRGQGTLVTVSSA
notes: Tetravalent, trispecific single-chain construct of four VHH (ISVD) domains: one against OX40L, two against IL-13, one against serum albumin; also called F0271000187; F27100187
